From patent US20160139118A1, “NOVEL ASSAY” (GLAXOSMITHKLINE INTELLECTUAL PROPERTY (NO.2) LIMITED, priority 2013, published 2016)

Legend:
[1] = target: Complement C3b (Complement Technology) (human) (UniProt P01024); assay: cell-based or functional assay
[2] = target: Complement C3b (Complement Technology), P01024
C3b [3] = target: T1, C3b (Homo sapiens, UniProt P01024); assay: CFI dose response in cofactor assay (conversion of C3b into iC3b); assay type: biochemical
T1 construct: Factor I, Factor H, C3b, and iC3b proteins were purchased; purchased Complement Technology Inc (Tyler, Tex.)
Procedure: A mixture of CFH (10-80 μg/mL) and C3b (80-150 μg/mL) was added into the tubes containing the CFI or BAM/CFI mixture. After a 30 minute-incubation at 37° C., the reaction mixtures were directly diluted into Assay Buffer and used for ELISA detection of iC3b. The detailed procedures other than indicated below were performed following the instruction provided with the ELISA kit. The diluted reaction mixtures and standards were applied to the 8-well strips at 60 μL per well and incubated at RT for 30 min. After washing 5 times in a plate washer with an in house-made washing buffer (10 mM Tris, 60 mM NaCl, 0.1% Tween 20, pH7.2), the 8-well strips were loaded with 50 μL of the HRP-anti-human iC3b conjugates per well and incubated at RT for 30 min. At the end of incubation, the 8-well strips were washed in the plate washer 5 times and incubated with 100 μL of the HRP substrates provided in the kit for additional 30 min. The reaction was stopped by addition of 50 μL Stop Buffer. The absorption at 405 nm was measured within 10 minutes. […] To answer these questions, a CFI dose response study was conducted where CFI was tested in a range of 10 ng/mL to 30 μg/mL in the presence or absence of 200 μM BAM1-42 (Lot 2, aged for 7 days without sonication) in the cofactor assay. […]

C3b [4] = target: T1, C3b; assay: Cofactor assay of bioactivity of purified and recombinant CFI; assay type: biochemical; settings: for estimated EC50 of CFI (95% limits in parentheses): three experiments in triplicate, CFH and C3b, 37° C. 1 hr
Procedure: The bioactivity measurements were conducted in triplicate and run on three occasions. Both CFI stock solutions were diluted in a 1/3 log series into 8 substock solutions starting at […] CFI. To maintain the CFI bioactivity in low concentration, 10 μg/mL CFH was used. Cofactor assays were set up by mixing […] of 2×CFI substock solutions with […] of CFH and C3b 2× mixture at a final concentration of […] for each reaction. The reaction mixtures were incubated at 37° C. for 1 hr, then the iC3b production in reactions was evaluated by a specific ELISA.
In the assay, 1 mU of CFI bioactivity is defined as the inverse of the amount of CFI that generates half of the maximal concentration of iC3b that can be produced (EC50). To obtain CFI bioactivity of a sample the following calculation is applied: 1/(EC50 of CFI in μg). This equation will result in CFI bioactivity levels expressed as U/μg of CFI. […] The model fitted to the data also predicted the EC50 recombinant to purified ratio.
This value provides the amount of CFI in ng that generates ½ the maximal amount of iC3b. Dividing these amounts by 1000 we convert the numbers to μg.

Recombinant complement factor I (GSK) (from UniProt P05156 19-583) (enzyme)
CFI bioactivity (inverse of EC50 in µg) [1]: 1640 U/µg of CFI | EC50 of CFI in cofactor assay (iC3b generation, 80 CFH and C3b, 1 hr), three experiments [1]: 0.0608 µg/mL | EC50 recombinant to purified ratio [1]: 1.8

Complement factor I, purified human serum protein (Complement Technology) (from UniProt P05156 19-583) (enzyme)
CFI bioactivity (inverse of EC50 in µg) [1]: 3070 U/µg of CFI | EC50 of CFI in cofactor assay (conversion of C3b into iC3b, with CFH), PBS control [1]: 0.686 µg/mL | EC50 of CFI in cofactor assay (iC3b generation, 80 CFH and C3b, 1 hr), three experiments [1]: 0.0326 µg/mL

B1: Mouse plasma complement factor I (protein)
chain: RSPSASDLPQEELVDQKCLLQKYTHRSCNKVFCQPWQRCIEGTCICKLPYQCPRAGTPVCAMNGRSYPTYCHQKSFECLHPEIKFSHNGTCAAEGKFNVSLIYGRTKTEGLVQVKLVDQDERMFICKNSWSMAEANVACVDLGFPLGVRDIQGSFNISGNLHINDTECLHVHCRGVETSLAECAFTKRRTELSNGLAGVVCYKQDADFPTSLSFQCVNGKHIPQEKACNGVNDCGDQSDELCCKGCRGNASLCKSGVCIPDQYKCNGEVDCITGEDESRCEEDRQQNIPKGLARSAQGEAEIETEETEMLTPGMDNERKRIKSLLPKLSCGVKRNTHTRRKRVIGGKPANVGDYPWQVAIKDGQRITCGGIYIGGCWILTAAHCVRPSRAHSYQVWTALLDWLKPNSQLGIQTVKRVIVHEKYNGATFQNDIALIEMKMHTGKKECELPNSVPACVPWSPYLFQPNDRCIISGWGRGKDNQKVYSLRWGEVDLIGNCSQFYPDRYYEKEMQCAGTRDGSIDACKGDSGGPLVCEDINNVTYVWGIVSWGENCGKPEFPGVYTRVANYFDWISYHVGRSLVSQHNV
cofactor assay with mouse plasma as source of CFI, human CFH and C3b [2]: mouse plasma CFI indeed can convert human C3b into iC3b in the presence of human CFH albeit with 10-times less activity

B2: Complement factor I, purified human serum protein (Complement Technology) (protein)
chain: KVTYTSQEDLVEKKCLAKKYTHLSCDKVFCQPWQRCIEGTCVCKLPYQCPKNGTAVCATNRRSFPTYCQQKSLECLHPGTKFLNNGTCTAEGKFSVSLKHGNTDSEGIVEVKLVDQDKTMFICKSSWSMREANVACLDLGFQQGADTQRRFKLSDLSINSTECLHVHCRGLETSLAECTFTKRRTMGYQDFADVVCYTQKADSPMDDFFQCVNGKYISQMKACDGINDCGDQSDELCCKACQGKGFHCKSGVCIPSQYQCNGEVDCITGEDEVGCAGFASVTQEETEILTADMDAERRRIKSLLPKLSCGVKNRMHIRRKRIVGGKRAQLGDLPWQVAIKDASGITCGGIYIGGCWILTAAHCLRASKTHRYQIWTTVVDWIHPDLKRIVIEYVDRIIFHENYNAGTYQNDIALIEMKKDGNKKDCELPRSIPACVPWSPYLFQPNDTCIVSGWGREKDNERVFSLQWGEVKLISNCSKFYGNRFYEKEMECAGTYDGSIDACKGDSGGPLVCMDANNVTYVWGVVSWGENCGKPEFPGVYTKVANYFDWISYHVGRPFISQYNV
amount of CFI needed to cleave 50% of the available C3b (re-analysis, 4-parameter logistic) [2]: The amount of CFI needed to cleave 50% of the available C3b was approximately 632 ng/ml

B3: CFI: Complement factor I protein purchased from Complement Technology Inc (protein)
chain: KVTYTSQEDLVEKKCLAKKYTHLSCDKVFCQPWQRCIEGTCVCKLPYQCPKNGTAVCATNRRSFPTYCQQKSLECLHPGTKFLNNGTCTAEGKFSVSLKHGNTDSEGIVEVKLVDQDKTMFICKSSWSMREANVACLDLGFQQGADTQRRFKLSDLSINSTECLHVHCRGLETSLAECTFTKRRTMGYQDFADVVCYTQKADSPMDDFFQCVNGKYISQMKACDGINDCGDQSDELCCKACQGKGFHCKSGVCIPSQYQCNGEVDCITGEDEVGCAGFASVTQEETEILTADMDAERRRIKSLLPKLSCGVKNRMHIRRKRIVGGKRAQLGDLPWQVAIKDASGITCGGIYIGGCWILTAAHCLRASKTHRYQIWTTVVDWIHPDLKRIVIEYVDRIIFHENYNAGTYQNDIALIEMKKDGNKKDCELPRSIPACVPWSPYLFQPNDTCIVSGWGREKDNERVFSLQWGEVKLISNCSKFYGNRFYEKEMECAGTYDGSIDACKGDSGGPLVCMDANNVTYVWGVVSWGENCGKPEFPGVYTKVANYFDWISYHVGRPFISQYNV
EC50 of CFI (PBS control, no BAM) (C3b [3]; CFI 10 ng/mL to 30 μg/mL, absence of BAM1-42): 0.686 µg/mL | amount of CFI needed to cleave 50% of the available C3b (C3b [3]; no BAM, reanalysis with reparametrized 4-parameter logistic equation): approximately 632 ng/ml

B4: purified CFI: CFI purified from serum (CompTech) (protein)
chain: KVTYTSQEDLVEKKCLAKKYTHLSCDKVFCQPWQRCIEGTCVCKLPYQCPKNGTAVCATNRRSFPTYCQQKSLECLHPGTKFLNNGTCTAEGKFSVSLKHGNTDSEGIVEVKLVDQDKTMFICKSSWSMREANVACLDLGFQQGADTQRRFKLSDLSINSTECLHVHCRGLETSLAECTFTKRRTMGYQDFADVVCYTQKADSPMDDFFQCVNGKYISQMKACDGINDCGDQSDELCCKACQGKGFHCKSGVCIPSQYQCNGEVDCITGEDEVGCAGFASVTQEETEILTADMDAERRRIKSLLPKLSCGVKNRMHIRRKRIVGGKRAQLGDLPWQVAIKDASGITCGGIYIGGCWILTAAHCLRASKTHRYQIWTTVVDWIHPDLKRIVIEYVDRIIFHENYNAGTYQNDIALIEMKKDGNKKDCELPRSIPACVPWSPYLFQPNDTCIVSGWGREKDNERVFSLQWGEVKLISNCSKFYGNRFYEKEMECAGTYDGSIDACKGDSGGPLVCMDANNVTYVWGVVSWGENCGKPEFPGVYTKVANYFDWISYHVGRPFISQYNV
estimated EC50 of CFI (95% limits in parentheses) (C3b [4]): 32.6 (9.3-108.8) ng/ml

B5: recombinant CFI: CFI generated by recombinant means (GSK) (protein)
chain: KVTYTSQEDLVEKKCLAKKYTHLSCDKVFCQPWQRCIEGTCVCKLPYQCPKNGTAVCATNRRSFPTYCQQKSLECLHPGTKFLNNGTCTAEGKFSVSLKHGNTDSEGIVEVKLVDQDKTMFICKSSWSMREANVACLDLGFQQGADTQRRFKLSDLSINSTECLHVHCRGLETSLAECTFTKRRTMGYQDFADVVCYTQKADSPMDDFFQCVNGKYISQMKACDGINDCGDQSDELCCKACQGKGFHCKSGVCIPSQYQCNGEVDCITGEDEVGCAGFASVTQEETEILTADMDAERRRIKSLLPKLSCGVKNRMHIRRKRIVGGKRAQLGDLPWQVAIKDASGITCGGIYIGGCWILTAAHCLRASKTHRYQIWTTVVDWIHPDLKRIVIEYVDRIIFHENYNAGTYQNDIALIEMKKDGNKKDCELPRSIPACVPWSPYLFQPNDTCIVSGWGREKDNERVFSLQWGEVKLISNCSKFYGNRFYEKEMECAGTYDGSIDACKGDSGGPLVCMDANNVTYVWGVVSWGENCGKPEFPGVYTKVANYFDWISYHVGRPFISQYNV
EC50 recombinant to purified ratio (C3b [4]; model fitted to data of three experiments, P<0.001 vs 1): 1.8 (1.5-2.2) | times lower bioactivity than material purified from serum (C3b [4]; overall result): approximately 2 times | estimated EC50 of CFI (95% limits in parentheses) (C3b [4]): 60.8 (21.6-168.0) ng/ml
